Assay results: patent US11230581B2, “Peptides and combination of peptides for use in immunotherapy against ovarian cancer and other cancers” (Immatics Biotechnologies GmbH, priority 2015, dated 2022)

biological target: HLA-A*02:01 (Homo sapiens, UniProt P04439, D140Y/D185E/D98H/E176V/E277Q/G131W/G231S/I119V/I121R/I166T/I218V/L300P/L318F/N151K/N90K/P208A/P217A/Q86G/Q94H/R138H/R169H/T345S); test: MHC binding assay (UV-ligand exchange, β2m ELISA, peptide exchange yield); conditions: binding of HLA-class I restricted peptides to HLA-A*02:01, UV-ligand exchange
Source text: Candidate peptides for T cell based therapies according to the present invention were further tested for their MHC binding capacity (affinity). The individual peptide-MHC complexes were produced by UV-ligand exchange, where a UV-sensitive peptide is cleaved upon UV-irradiation, and exchanged with the peptide of interest as analyzed. Only peptide candidates that can effectively bind and stabilize the peptide-receptive MHC molecules prevent dissociation of the MHC complexes. To determine the yield of the exchange reaction, an ELISA was performed based on the detection of the light chain (β2m) of stabilized MHC complexes. The assay was performed as generally described in Rodenko et al. (Rodenko et al., 2006).
96 well MAXISorp plates (NUNC) were coated over night with 2 ug/ml streptavidin in PBS at room temperature, washed 4× and blocked for 1h at 37° C. in 2% BSA containing blocking buffer. […] Peptide-MHC monomers of the UV-exchange reaction were diluted 100 fold in blocking buffer. Samples were incubated for 1 h at 37° C., washed four times, incubated with 2 ug/ml HRP conjugated anti-β2m for 1h at 37° C., washed again and detected with TMB solution that is stopped with […]. Absorption was measured at 450 nm. Candidate peptides that show a high exchange yield (preferably higher than 50%, most preferred higher than 75%) are generally preferred for a generation and production of antibodies or fragments thereof, and/or T cell receptors or fragments thereof, as they show sufficient avidity to the MHC molecules and prevent dissociation of the MHC complexes.

Row | Substance | Peptide exchange (MHC class I binding score, peptide exchange yield)
1 | 429 (GLVNDLARV; listed as Homo sapiens) [compound 429] | “++” (≥20% = ++)
2 | 231 (FLSPQQPPLLL; listed as Homo sapiens) [compound 231] | “++” (≥20% = ++)
3 | 475 (LLLNEEALAQI; listed as Homo sapiens) [compound 475] | “+++” (≥50 = +++)
4 | 62 (VLLDVSAGQLLM; listed as Homo sapiens) [compound 62] | “++++” (≥75% = ++++)
5 | 38 (FLLEDDIHVS; listed as Homo sapiens) [compound 38] | “+++” (≥50 = +++)
6 | 543 (GLLPTPITQQASL; listed as Homo sapiens) [compound 543] | “+++” (≥50 = +++)
7 | 283 (ALYIGDGYVIHLA; listed as Homo sapiens) [compound 283] | “+++” (≥50 = +++)
8 | 539 (ALFDAQAQV; listed as Homo sapiens) [compound 539] | “+++” (≥50 = +++)
9 | 88 (FLLVGDLMAV; listed as Homo sapiens) [compound 88] | “+++” (≥50 = +++)
10 | 336 (ILLTAIVQV; listed as Homo sapiens) [compound 336] | “+++” (≥50 = +++)
11 | 588 (SLLPLSHLV; listed as Homo sapiens) [compound 588] | “+++” (≥50 = +++)
12 | 169 (NLPEYLPFV; listed as Homo sapiens) [compound 169] | “+++” (≥50 = +++)
13 | 49 (YLPAVFEEV; listed as Homo sapiens) [compound 49] | “+++” (≥50 = +++)
14 | 300 (ALLGQTFSL; listed as Homo sapiens) [compound 300] | “+++” (≥50 = +++)
15 | 197 (ALGPEGGRV; listed as Homo sapiens) [compound 197] | “++” (≥20% = ++)
16 | 485 (NVPDSFNEV; listed as Homo sapiens) [compound 485] | “+++” (≥50 = +++)
17 | 606 (ALWETEVYI; listed as Homo sapiens) [compound 606] | “+++” (≥50 = +++)
18 | 154 (ALDDGTPAL; listed as Homo sapiens) [compound 154] | “++” (≥20% = ++)
19 | 223 (ALLENIALYL; listed as Homo sapiens) [compound 223] | “+++” (≥50 = +++)

Row | Substance | Peptide exchange (MHC class I binding score, peptide exchange yield)
20 | 370 (SLLQDLVSV; listed as Homo sapiens) [compound 370] | “+++” (≥50 = +++)
21 | 108 (ALFPGVALLLA; listed as Homo sapiens) [compound 108] | “++++” (≥75% = ++++)
22 | 8 (FTLGNVVGMYL; listed as Homo sapiens) [compound 8] | “++++” (≥75% = ++++)
23 | 178 (ALTEIAFVV; listed as Homo sapiens) [compound 178] | “++++” (≥75% = ++++)
24 | 325 (FIMPATVADATAV; listed as Homo sapiens) [compound 325] | “+++” (≥50 = +++)
25 | 459 (ALITEVVRL; listed as Homo sapiens) [compound 459] | “++” (≥20% = ++)
26 | 558 (GLLENIPRV; listed as Homo sapiens) [compound 558] | “+++” (≥50 = +++)
27 | 155 (RVANLHFPSV; listed as Homo sapiens) [compound 155] | “+++” (≥50 = +++)
28 | 584 (ALAEVAAMENV; listed as Homo sapiens) [compound 584] | “+++” (≥50 = +++)
29 | 248 (FLFPNQYVDV; listed as Homo sapiens) [compound 248] | “+++” (≥50 = +++)
30 | 262 (LLWGDLIWL; listed as Homo sapiens) [compound 262] | “+++” (≥50 = +++)
31 | 182 (MLLEAPGIFL; listed as Homo sapiens) [compound 182] | “+++” (≥50 = +++)
32 | 393 (GLLDTQTSQVLTA; listed as Homo sapiens) [compound 393] | “++” (≥20% = ++)
33 | 109 (IILSILEQA; listed as Homo sapiens) [compound 109] | “++++” (≥75% = ++++)
34 | 144 (YIMEPSIFNTL; listed as Homo sapiens) [compound 144] | “+++” (≥50 = +++)
35 | 198 (KTINKVPTV; listed as Homo sapiens) [compound 198] | “+++” (≥50 = +++)
36 | 40 (TLLVKVFSV; listed as Homo sapiens) [compound 40] | “+++” (≥50 = +++)
37 | 44 (ILDPISSGFLL; listed as Homo sapiens) [compound 44] | “++” (≥20% = ++)
38 | 189 (ALQRKLPYV; listed as Homo sapiens) [compound 189] | “+++” (≥50 = +++)

Row | Substance | Peptide exchange (MHC class I binding score, peptide exchange yield)
39 | 288 (NLINEINGV; listed as Homo sapiens) [compound 288] | “+++” (≥50 = +++)
40 | 143 (LLLDITPEI; listed as Homo sapiens) [compound 143] | “++++” (≥75% = ++++)
41 | 254 (TLLAFIMEL; listed as Homo sapiens) [compound 254] | “+++” (≥50 = +++)
42 | 50 (SLSELEALM; listed as Homo sapiens) [compound 50] | “+++” (≥50 = +++)
43 | 1 (SLMEPPAVLLL; listed as Homo sapiens) [compound 1] | “+++” (≥50 = +++)
44 | 478 (YLLHEKLNL; listed as Homo sapiens) [compound 478] | “+++” (≥50 = +++)
45 | 525 (VLLEAGEGLVTI; listed as Homo sapiens) [compound 525] | “+++” (≥50 = +++)
46 | 616 (VLIDEVESL; listed as Homo sapiens) [compound 616] | “+++” (≥50 = +++)
47 | 216 (NLWEDPYYL; listed as Homo sapiens) [compound 216] | “+++” (≥50 = +++)
48 | 489 (KMWEELPEVV; listed as Homo sapiens) [compound 489] | “+++” (≥50 = +++)
49 | 43 (VLSSLEINI; listed as Homo sapiens) [compound 43] | “++” (≥20% = ++)
50 | 548 (ALWENPESGEL; listed as Homo sapiens) [compound 548] | “++” (≥20% = ++)
51 | 622 (RLLGEEVVRVLQA; listed as Homo sapiens) [compound 622] | “+++” (≥50 = +++)
52 | 233 (VLSETLYEL; listed as Homo sapiens) [compound 233] | “++” (≥20% = ++)
53 | 463 (SLVESHLSDQLTL; listed as Homo sapiens) [compound 463] | “+++” (≥50 = +++)
54 | 564 (TVTNAVVTV; listed as Homo sapiens) [compound 564] | “+++” (≥50 = +++)
55 | 596 (ALLDQTKTLAESAL; listed as Homo sapiens) [compound 596] | “+++” (≥50 = +++)
56 | 45 (SLWQDIPDV; listed as Homo sapiens) [compound 45] | “+++” (≥50 = +++)
